Laboratory results reported in article doi:10.1101/2025.03.24.645063 (2025).

Target: CRBN/DDB1 complex (human | , UniProt Q96SW2 1-442; Q16531 1-1140, CoraFluor-1 label (on the complex, chain not told))
Assay: FRET; TR-FRET competitive displacement of thal-FITC

B1: UROD with C-terminal cyclic imide (recombinant UROD incubated with PCMT1) (natural protein)
chain: MEANGLGPQGFPELKNDTFLRAAWGEETDYTPVWCMRQAGRYLPEFRETRAAQDFFSTCRSPEACCELTLQPLRRFPLDAAIIFSDILVVPQALGMEVTMVPGKGPSFPEPLREEQDLERLRDPEVVASELGYVFQAITLTRQRLAGRVPLIGFAGAPWTLMTYMVEGGGSSTMAQAKRWLYQRPQASHQLLRILTDALVPYLVGQVVAGAQALQLFESHAGHLGPQLFNKFALPYIRDVAKQVKARLREAGLAPVPMIIFAKDGHFALEELAQAGYEVVGLDWTVAPKKARECVGKTVTLQGNLDPCALYASEEEIGQLVKQMLDDFGPHRYIANLGHGLYPDMDPEHVGAFVDAVHKHSRLLRQN
modifications: C-terminal cyclic imide on the C-terminal asparagine (N367), confirmed by mass spectrometry
- Kd: 1500 nM
